Patent US20030232009A1 (Amgen, published 2003)
Substitutions are numbered along the chain they refer to. Read-outs that look alike come from different tables or passages of the source.

T1: Macaque 46 mer peptide (RB exon of macaque CD45RB) (macaque)
T1 construct: synthetic peptide
T1 peptide: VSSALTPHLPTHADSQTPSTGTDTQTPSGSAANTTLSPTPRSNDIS

T2: Human 20.1 peptide (human)
T2 construct: synthetic peptide from the RB exon
T2 peptide: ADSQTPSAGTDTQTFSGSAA

T3: Human 46 mer peptide (RB exon of human CD45) (human)
T3 construct: synthetic peptide; also called CD45RB 46 mer
T3 peptide: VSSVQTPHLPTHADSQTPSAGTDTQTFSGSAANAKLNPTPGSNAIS

T4: chimeric CD45RB (full length human CD45RB with the macaque RB exon) transiently expressed in CHO cells (human; macaque, UniProt P08575-9 26-33; P08575-9 81-1192)
T4 construct: whole chimeric protein on CHO cells; also called Macaque CD45RB CHO
T4 sequence: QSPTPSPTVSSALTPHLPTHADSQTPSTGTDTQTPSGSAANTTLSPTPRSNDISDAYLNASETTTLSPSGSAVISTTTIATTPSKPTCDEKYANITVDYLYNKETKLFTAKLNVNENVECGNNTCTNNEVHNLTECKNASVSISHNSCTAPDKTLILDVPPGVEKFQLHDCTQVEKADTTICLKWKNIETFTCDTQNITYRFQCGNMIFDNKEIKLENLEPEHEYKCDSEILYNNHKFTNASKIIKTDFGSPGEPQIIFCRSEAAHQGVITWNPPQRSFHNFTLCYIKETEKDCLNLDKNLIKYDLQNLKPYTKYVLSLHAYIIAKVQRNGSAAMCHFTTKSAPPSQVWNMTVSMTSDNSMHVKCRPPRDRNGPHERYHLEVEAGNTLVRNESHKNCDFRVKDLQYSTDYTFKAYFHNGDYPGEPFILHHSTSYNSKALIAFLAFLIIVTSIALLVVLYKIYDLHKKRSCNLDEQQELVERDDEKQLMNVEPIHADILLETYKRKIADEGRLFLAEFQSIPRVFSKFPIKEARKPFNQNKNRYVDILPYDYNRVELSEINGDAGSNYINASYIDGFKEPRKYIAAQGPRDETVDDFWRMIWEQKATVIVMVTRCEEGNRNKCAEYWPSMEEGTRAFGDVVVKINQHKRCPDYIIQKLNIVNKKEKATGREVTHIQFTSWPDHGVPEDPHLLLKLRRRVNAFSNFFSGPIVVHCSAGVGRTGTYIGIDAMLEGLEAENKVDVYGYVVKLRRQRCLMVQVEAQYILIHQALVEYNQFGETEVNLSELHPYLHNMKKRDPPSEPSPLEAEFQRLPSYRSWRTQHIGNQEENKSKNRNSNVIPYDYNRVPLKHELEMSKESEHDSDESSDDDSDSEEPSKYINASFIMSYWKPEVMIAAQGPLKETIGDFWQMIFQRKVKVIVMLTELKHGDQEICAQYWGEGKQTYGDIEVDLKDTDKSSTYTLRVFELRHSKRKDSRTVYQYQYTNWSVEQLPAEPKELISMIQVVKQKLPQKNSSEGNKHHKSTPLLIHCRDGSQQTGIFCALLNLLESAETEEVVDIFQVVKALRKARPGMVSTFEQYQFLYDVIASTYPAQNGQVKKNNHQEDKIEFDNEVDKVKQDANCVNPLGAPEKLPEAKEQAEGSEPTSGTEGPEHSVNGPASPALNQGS

T5: Human 20.2 peptide (human)
T5 construct: synthetic peptide from the RB exon
T5 peptide: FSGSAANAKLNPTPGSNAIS

B1: antibody in the supernatant of B cell culture well 227E10 (antibody, V domains shown)
VH: QVHLVESGGGLVKPGGSLRLSCAASGFTFINYYMTWIRQAPGKGLEWVSYISLSGSTIYYADSVKGRFTISRDNAKNSLFLQMNSLRAEDTAVYYCARRAATVTTFDYWGQGTLVTVSS
VL: EIVMTQSPATLSVSPGERATLSCRASQSVRSNLAWSQQKPGQAPRLLIYGASTRATGIPARFSGSGSGTEFTLTISSLQSEDFAVYYCQQYNNWPLTFGGGTKVEIK
B2: antibody in the supernatant of B cell culture well 283B2 (antibody, V domains shown)
VH: QVQLVESGGGLVKPGGSLRLSCAASGFTFNVYYMNWIRQAPGKGLEWVSYISTSSSAIYYADSVKGRFTISRDNAKNSLYLQMNSLRAEDTAVYYCARRTGSTTVFDYWGQGTLVTVSS
VL: B1 VL with M4L, V29I, R30N, S31N, S36Y, R61K, D82N, N93K
notes: recombinant 648 came from this well
B3: antibody in the supernatant of B cell culture well 250F2 (antibody, V domains shown)
VH: QVQLVESGGDLVKPGGSLRLSCAASGFSFSGYYLSWIRQAPGKGLEWVSYISLSGSFIKYADSVKGRFTISRDNAKKTLHLQMNSLRAEDTAVYYCARRTGTTTVFDYWGQGTLVTVSS
VL: B1 VL with I2V, R30N, S36Y, K39R, A55V
notes: recombinant 662 came from this well
B4: AB-CD45RB-XG2-556 (antibody, human IgG2, V domains shown)
VH: QVQLQESGPGLVKPSETLSLTCTVSGGSISGYYWSWIRQPAGKGLEWIGRIHTTGKTAYNPSLKSRVIMSVDTSKNLFSLKLTSVTAADTAVYYCARDYDFLTGYFDYWGQGTLVTVSS
VL: DVVMTQSPLSLPVTLGQPASISCRSSQSLVYSDGNTYLNWFQQRPGHSPRRLIYKVSNWDSGVPDRFSGSGSGTDFTLKISRVEAEDVGIYYCMQGTHWPPTFGQGTRVEIK
notes: recombinant human IgG2 kappa; also called sc556
B5: AB-CD45RB-XG2-539 (antibody, human IgG2, V domains shown)
VH: B4 VH with Y32S, T53S, V71L
VL: B4 VL with S32G
notes: recombinant human IgG2 kappa; also called sc539
B6: antibody in the supernatant of B cell culture well 170B8 (antibody, V domains shown)
VH: AVQLLESGGGLIQPGGSLRLSCAASGFTFSSYAMSWVRQAPGKGLEWVSAISGSGGSTFYADSVRGRFTISRDNSKNTLYLQMNSLRVEDTAVYYCAKEVMGPIFFDYWGQGTLVTVSS
VL: EIVLTQSPGTLSLSPGERATLSCRASQSIISSALAWYQQKPGQAPRLLIYGASSRATGIPDRFSGSGSGTDFTLTISRLEPEDFAVYHCQQYGSTPLTFGGGTKVEIK
notes: recombinant 475 came from this well
B7: antibody in the supernatant of B cell culture well 255D9 (antibody, V domains shown)
VH: QVQLVESGGGVVQPGRSLRLSCAASGFTFSNYGMHWVRQAPGKGLEWVAVIWYDGSKKFYADSVKGRFTISRDNFEKTLYLQMNSLRAEDTAVYYCARGGGDFDYWGQGTLVTVSS
VL: EIVMTQSPATLSVSPGERATLSCRASQSLSGSYLAWYQQKPGQAPRLLIYSASTRATGIPARFSGSGSGTEFTLTISSLQSEDFAVYYCQQYNNWPPLTFGGGTKVEIK
notes: recombinant 713 came from this well

What was measured:
[1] = biological target: T1, Macaque 46 mer peptide (RB exon of …); assay: ELISA, well supernatant on coated peptide
[2] = biological target: T2, Human 20.1 peptide; assay: ELISA, well supernatant on coated peptide
[3] = biological target: T3, Human 46 mer peptide (RB exon of human …); assay: ELISA, well supernatant on coated peptide
[4] = biological target: T4, chimeric CD45RB (full length human …); assay: transiently transfected CHO cells
[5] = biological target: T5, Human 20.2 peptide; assay: recombinant antibody on peptide
[6] = biological target: T1, Macaque 46 mer peptide (RB exon of …); assay: recombinant antibody on peptide
[7] = biological target: T3, Human 46 mer peptide (RB exon of human …); assay: recombinant antibody on peptide
[8] = biological target: T1, Macaque 46 mer peptide (RB exon of …); assay: ELISA, well supernatant on coated peptide
[9] = biological target: T2, Human 20.1 peptide; assay: ELISA, well supernatant on coated peptide
[10] = biological target: T3, Human 46 mer peptide (RB exon of human …); assay: ELISA, well supernatant on coated peptide

Row | Binder | ELISA reading [1] | ELISA reading [2] | ELISA reading [3] | other results
1 | B1 | 0.2 | 0.1 | 0.2 | –
2 | B2 | 0.2 | 0.1 | 0.2 | –
3 | B3 | 0.2 | 0.1 | 0.2 | –
4 | B4 | – | – | – | binding result [4]: no binding; binding result [5]: no binding; binding result [6]: no binding; binding result [7]: no binding
5 | B5 | – | – | – | binding result [4]: no binding; binding result [5]: no binding; binding result [6]: no binding; binding result [7]: no binding
6 | B6 | – | – | – | ELISA reading [8]: 0.8; ELISA reading [9]: 3.9; ELISA reading [10]: 2.5
7 | B7 | 0.1 | 0.1 | 3.5 | –
